Experimental data published in publication PMC2100146, “The Inhibition of Polo Kinase by Matrimony Maintains G2 Arrest in the Meiotic Cell Cycle” (PLoS Biology, 2007).

Target: T1, C-terminally 3x FLAG-tagged Mtrm (Drosophila melanogaster, UniProt Q23973 1-217)
T1 construct: Matrimony (Mtrm), Drosophila melanogaster, 217 amino acids; Phosphorylation detected by MS on T40, S48, S52, S124 and S137; also called Mtrm-FLAG(3x); mtrm-Flag(3x); source: UASP-mtrm-Flag(3x) expressed in ovaries under the nanos-GAL4 driver in a wild-type background, in ovary extract; not shown: 3x FLAG, C-terminal, kept
T1 sequence (looked up): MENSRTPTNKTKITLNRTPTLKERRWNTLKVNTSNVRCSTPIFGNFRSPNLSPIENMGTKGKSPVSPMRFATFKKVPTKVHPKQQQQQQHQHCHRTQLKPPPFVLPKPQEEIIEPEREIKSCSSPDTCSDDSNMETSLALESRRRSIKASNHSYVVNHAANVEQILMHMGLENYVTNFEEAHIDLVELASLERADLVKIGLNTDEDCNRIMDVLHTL
Test: affinity purification with mass spectrometry; anti-FLAG beads, ovary extracts expressing Mtrm-3x FLAG, eluted with 3x FLAG peptide; MudPIT; three independent purifications against five control FLAG immunoprecipitations from w1118; ratio of NSAF values
Settings: partners not purified

stoichiometry N: 0.96 ± 0.11
B1: Polo kinase (Polo) (enzyme, UniProt P52304 1-576, looked up)
chain: MAAKPEDKSTDIPDRLVDINQRKTYKRMRFFGKGGFAKCYEIIDVETDDVFAGKIVSKKLMIKHNQKEKTAQEITIHRSLNHPNIVKFHNYFEDSQNIYIVLELCKKRSMMELHKRRKSITEFECRYYIYQIIQGVKYLHDNRIIHRDLKLGNLFLNDLLHVKIGDFGLATRIEYEGERKKTLCGTPNYIAPEILTKKGHSFEVDIWSIGCVMYTLLVGQPPFETKTLKDTYSKIKKCEYRVPSYLRKPAADMVIAMLQPNPESRPAIGQLLNFEFLKGSKVPMFLPSSCLTMAPRIGSNDTIEDSMHRKPLMEMNGIRPDDTRLESTFLKANLHDAITASAQVCRHSEDYRSDIESLYQQLTNLINGKPRILQGNLGDENTDPAAQPLFWISKWVDYSDKYGFGYQLCDEGIGVMFNDTTKLILLPNQINVHFIDKDGKETYMTTTDYCKSLDKKMKLLSYFKRYMIEHLVKAGANNVNIESDQISRMPHLHSWFRTTCAVVMHLTNGSVQLNFSDHMKLILCPRMSAITYMDQEKNFRTYRFSTIVENGVSKDLYQKIRYAQEKLRKMLEKMFT
notes: Polo kinase, Drosophila melanogaster; endogenous protein of ovaries; Polo recovered with Mtrm-3xFLAG was found phosphorylated on T182 at over 80% in all three purifications; source: endogenous, Drosophila ovary extract
